Results as given in article PMC5887453 (Nucleic Acids Research, 2018).
Residue numbers refer to the chain shown, from its start.

How the values were obtained:
Experiment in all cases: native gel or EMSA
PhoEF-2 M167S = target: T1, PhoEF-2 M167S (Pyrococcus horikoshii, UniProt O59521 1-732, M167S)
T1 sequence (looked up): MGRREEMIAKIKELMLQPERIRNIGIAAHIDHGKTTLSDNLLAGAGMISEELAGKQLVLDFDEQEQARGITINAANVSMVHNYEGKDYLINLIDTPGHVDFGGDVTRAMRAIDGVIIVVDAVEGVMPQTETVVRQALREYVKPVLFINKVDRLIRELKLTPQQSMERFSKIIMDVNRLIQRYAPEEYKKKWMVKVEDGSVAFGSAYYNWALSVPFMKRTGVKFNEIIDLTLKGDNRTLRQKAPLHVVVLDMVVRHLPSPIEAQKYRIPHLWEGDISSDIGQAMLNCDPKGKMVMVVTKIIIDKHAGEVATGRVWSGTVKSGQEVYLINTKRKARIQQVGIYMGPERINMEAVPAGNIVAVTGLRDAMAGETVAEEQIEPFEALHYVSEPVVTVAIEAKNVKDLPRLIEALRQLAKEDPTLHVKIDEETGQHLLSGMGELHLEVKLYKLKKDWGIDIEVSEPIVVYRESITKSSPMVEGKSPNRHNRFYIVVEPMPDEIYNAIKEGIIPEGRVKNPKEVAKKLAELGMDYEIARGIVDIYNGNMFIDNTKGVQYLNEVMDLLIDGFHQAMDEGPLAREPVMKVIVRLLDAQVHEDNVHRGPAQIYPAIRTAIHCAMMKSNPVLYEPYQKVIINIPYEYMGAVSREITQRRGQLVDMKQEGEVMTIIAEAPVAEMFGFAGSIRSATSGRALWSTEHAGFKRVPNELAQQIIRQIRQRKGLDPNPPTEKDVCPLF

PhoEF-2 V198S = target: T2, PhoEF-2 V198S (Pyrococcus horikoshii, UniProt O59521 1-732, V198S)
T2 sequence (looked up): T1 sequence (looked up) with S164M, V195S

PhoEF-2 F171S = target: T3, PhoEF-2 F171S (Pyrococcus horikoshii, UniProt O59521 1-732, F171S)
T3 sequence (looked up): T1 sequence (looked up) with S164M, F168S

Measured: binding result

B1: Pyrococcus horikoshii ribosomal stalk protein P1 (natural protein, UniProt O57705 1-108, looked up)
chain: MEYVYAALLLHSVGKEINEENLKAVLQAAGVEPEEARIKALVAALEGVNIDEVIEKAAMPVAVAAAPAAAPAEAGGEEKKEEEKKEEEEKEEEVSEEEALAGLSALFG
modifications: in the SPR only: biotin on amino groups via a PEG linker (EZ-Link NHS-PEG4-Biotin)
binds: all assays above
